Experimental data taken from the RNAGym collection of RNA variant scans (doi:10.7554/elife.80360).

B1: HDV Ribozyme (parent)
chain: GGCCGGCAUGGUCCCAGCCUCCUCGCUGGCGCCGGCUGGGCAACAUUCCGAGGGGACCGUCCCCUCGGUAAUGGCGAAUGGGACCCA

Variants of: B1
Test: self-cleavage, relative activity (ratio to wild type); higher = more cleavage; co-transcriptional

Variant	self-cleavage
GGCCGUCAUGGUCCCAGCCUUCUCGCUGGCGCCGGCUGGGCAACAUUCCGAGGGGACCGUCCCCUCGGUAAUGGCGAAUGGGACCCA [G6U C21U]	0.122
GGCCGUCAUGGUCCCAGCCUCCUCGCUGGCGCCGGCUGGGCAACAUUCCGAGGGGACCGUCCCCUCGGUAAUGGCGGAUGGGACCCA [G6U A77G]	0.302
GGCCGUCAUGGUCCCAGCCUCCUCGCUGGCGCCGGCUGGGCAACAUUCCGAGGGGACCGUCCCCUCGGUAAUGGCGUAUGGGACCCA [G6U A77U]	0.158
GGCCGUCAUGGUCCCAGCCUCCUCGCUGGCGCCGGCUGGGCAACAUUCCGAGGGGCCCGUCCCCUCGGUAAUGGCGAAUGGGACCCA [G6U A56C]	0.665
GGCCGUCAUGGUCCCUGCCUCCUCGCUGGCGCCGGCUGGGCAACAUUCCGAGGGGACCGUCCCCUCGGUAAUGGCGAAUGGGACCCA [G6U A16U]	0.305
GGCCGUCAUGGUCCCAGCCUCCUCGCUGGCGCAGGCUGGGCAACAUUCCGAGGGGACCGUCCCCUCGGUAAUGGCGAAUGGGACCCA [G6U C33A]	0.0332
GGCCGUCAUGGUCCCAGCCUCCUCGCUGGCGCGGGCUGGGCAACAUUCCGAGGGGACCGUCCCCUCGGUAAUGGCGAAUGGGACCCA [G6U C33G]	0.196
GGCCGUCAUGGUCCCAGCCUCCUCGCUGGCGCUGGCUGGGCAACAUUCCGAGGGGACCGUCCCCUCGGUAAUGGCGAAUGGGACCCA [G6U C33U]	0.217
GGCCGCCAUGGUCCCAGCCUCCUCGCUGGCGCCGGCUGGGCAACAUCCCGAGGGGACCGUCCCCUCGGUAAUGGCGAAUGGGACCCA [G6C U47C]	0.453
GGCCGCCAUGGUCCCAGCCCCCUCGCUGGCGCCGGCUGGGCAACAUUCCGAGGGGACCGUCCCCUCGGUAAUGGCGAAUGGGACCCA [G6C U20C]	0.0923
GGCCGCCAUGGUCCCAGCCGCCUCGCUGGCGCCGGCUGGGCAACAUUCCGAGGGGACCGUCCCCUCGGUAAUGGCGAAUGGGACCCA [G6C U20G]	0.0978
GGCCGUCAUGGUCCCAGCCUCCUCGCUGGCGCCGGCUGGGCAACAUUCCGAGGGGACCGUCCCCUCGGUACUGGCGAAUGGGACCCA [G6U A71C]	0.123
GGCCGUCAUGGUCCCAGCCUCCUCGCUGGCGCCGGCUGGGCAACAUUCCGAGGGGACCGUCCCCUCGGUAGUGGCGAAUGGGACCCA [G6U A71G]	0.399
GGCCGCCAUGGUCCCAGCCUCCUCGCUGGCGCCGGCUGGGCAACAUUCCGAGGGGACCGUCCCCUCGGUAAUGGCGAACGGGACCCA [G6C U79C]	0.0405
GGCCGUCAUGGUCCCAGCCUCCUCGCUGGCGCCGGGUGGGCAACAUUCCGAGGGGACCGUCCCCUCGGUAAUGGCGAAUGGGACCCA [G6U C36G]	0
GGCCGUCAUGGUCCCAGCCUCCUCGCUGGCGCCGGUUGGGCAACAUUCCGAGGGGACCGUCCCCUCGGUAAUGGCGAAUGGGACCCA [G6U C36U]	0.227
GGCCGCCAUGGUCCCAGCCUCCUCGCUGGCGCCGGCUGGGCAACAUUCCGAGGGGACCGACCCCUCGGUAAUGGCGAAUGGGACCCA [G6C U60A]	0.231
GGCCGUCAUGGUCCCAGCCUCCUCGCUGGCGCCGGCUGGGCAUCAUUCCGAGGGGACCGUCCCCUCGGUAAUGGCGAAUGGGACCCA [G6U A43U]	0.212
GGCCGUCAUGGUCCCAGCCUCCUCGCUGGCGCCGGCUGGGCAGCAUUCCGAGGGGACCGUCCCCUCGGUAAUGGCGAAUGGGACCCA [G6U A43G]	0.0665
GGCCGUCAUGGUCCCAGCCUCCUCGCUGGCGCCGGCUGGGCACCAUUCCGAGGGGACCGUCCCCUCGGUAAUGGCGAAUGGGACCCA [G6U A43C]	0.0489
GGCCGUCAUGGUGCCAGCCUCCUCGCUGGCGCCGGCUGGGCAACAUUCCGAGGGGACCGUCCCCUCGGUAAUGGCGAAUGGGACCCA [G6U C13G]	0
GGCCGUCAUGGUACCAGCCUCCUCGCUGGCGCCGGCUGGGCAACAUUCCGAGGGGACCGUCCCCUCGGUAAUGGCGAAUGGGACCCA [G6U C13A]	0.0875

Variant	self-cleavage
GGCCGUCAUGGUCCCAGCCUCCUCGCUGGCGCCGGCUGGGCAAGAUUCCGAGGGGACCGUCCCCUCGGUAAUGGCGAAUGGGACCCA [G6U C44G]	0.268
GGCCGUCAUGGUCCCAGCCUCCUCGCUGGCGCCGGCUGGGCAAAAUUCCGAGGGGACCGUCCCCUCGGUAAUGGCGAAUGGGACCCA [G6U C44A]	0.213
GGCCGUCAUGGUCCCAGCUUCCUCGCUGGCGCCGGCUGGGCAACAUUCCGAGGGGACCGUCCCCUCGGUAAUGGCGAAUGGGACCCA [G6U C19U]	0.0489
GGCCGUCAUGGUCACAGCCUCCUCGCUGGCGCCGGCUGGGCAACAUUCCGAGGGGACCGUCCCCUCGGUAAUGGCGAAUGGGACCCA [G6U C14A]	0.0692
GGCCGUCAUGGUCGCAGCCUCCUCGCUGGCGCCGGCUGGGCAACAUUCCGAGGGGACCGUCCCCUCGGUAAUGGCGAAUGGGACCCA [G6U C14G]	0.166
GGCCGUCAUGGUCUCAGCCUCCUCGCUGGCGCCGGCUGGGCAACAUUCCGAGGGGACCGUCCCCUCGGUAAUGGCGAAUGGGACCCA [G6U C14U]	0.682
GGCCGUCAUGGUCCCAGCCUCCUCGCUGGCGCCGGCUGGGCAACAUUCCGCGGGGACCGUCCCCUCGGUAAUGGCGAAUGGGACCCA [G6U A51C]	0.656
GGCCGUCAUGGUCCCAGCCUCCUCGCUGGCGCCGGCUGGGCAACAUUCCGGGGGGACCGUCCCCUCGGUAAUGGCGAAUGGGACCCA [G6U A51G]	0.475
GGCCGUCAUGGUCCCAGCCUCCUUGCUGGCGCCGGCUGGGCAACAUUCCGAGGGGACCGUCCCCUCGGUAAUGGCGAAUGGGACCCA [G6U C24U]	0.133
GGCCGUCAUGGUCCCAGCCUCCUAGCUGGCGCCGGCUGGGCAACAUUCCGAGGGGACCGUCCCCUCGGUAAUGGCGAAUGGGACCCA [G6U C24A]	0.0378
GGCCGCCAUGGUCCCAGCCUCCUCGCUGGCGCCGGCUGGGCAACAUUCCGAGGGGACCGUCCCCGCGGUAAUGGCGAAUGGGACCCA [G6C U65G]	0.115
GGCCGCCACGGUCCCAGCCUCCUCGCUGGCGCCGGCUGGGCAACAUUCCGAGGGGACCGUCCCCUCGGUAAUGGCGAAUGGGACCCA [G6C U9C]	0.391
GGCCGCCAGGGUCCCAGCCUCCUCGCUGGCGCCGGCUGGGCAACAUUCCGAGGGGACCGUCCCCUCGGUAAUGGCGAAUGGGACCCA [G6C U9G]	0.208
GGCCGCCAUGGUCCCAGCCUCCUCGCUGGCGCCGGCUGGGCAACAUUCCGAGGGGACCGUCCCCUCGGCAAUGGCGAAUGGGACCCA [G6C U69C]	0.172
GGCCGCCAUGGUCCCAGCCUCCUCGCUGGCGCCGGCGGGGCAACAUUCCGAGGGGACCGUCCCCUCGGUAAUGGCGAAUGGGACCCA [G6C U37G]	0.0923
GGCCGUCAUGGUCCCAGCCUCCUCGCUGGAGCCGGCUGGGCAACAUUCCGAGGGGACCGUCCCCUCGGUAAUGGCGAAUGGGACCCA [G6U C30A]	0.0791
GGCCGUCAUGGUCCCAGUCUCCUCGCUGGCGCCGGCUGGGCAACAUUCCGAGGGGACCGUCCCCUCGGUAAUGGCGAAUGGGACCCA [G6U C18U]	0.0369
GGCCGUCAUGGUCCCAGCCUCCUCGCUGGCGCCGGCUGGGCAACAUUCCGAGGGGACCGUCCCCUCGGUAAUGGCGAAUGGGACCCU [G6U A87U]	0.591
GGCCGCCAUGGUCCCAGCCUCCUCGCCGGCGCCGGCUGGGCAACAUUCCGAGGGGACCGUCCCCUCGGUAAUGGCGAAUGGGACCCA [G6C U27C]	0.0923
GGCCGUCAUGGUCCCAGCCUCGUCGCUGGCGCCGGCUGGGCAACAUUCCGAGGGGACCGUCCCCUCGGUAAUGGCGAAUGGGACCCA [G6U C22G]	0.0489
GGCCGUCAUGGUCCCAGCCUCUUCGCUGGCGCCGGCUGGGCAACAUUCCGAGGGGACCGUCCCCUCGGUAAUGGCGAAUGGGACCCA [G6U C22U]	0.136
GGCCGUUAUGGUCCCAGCCUCCUCGCUGGCGCCGGCUGGGCAACAUUCCGAGGGGACCGUCCCCUCGGUAAUGGCGAAUGGGACCCA [G6U C7U]	0.151

Variant	self-cleavage
GGCCGUCAUGGUCCCAGCCUCCUCGCUGGCGCCGGCUGGGCAACAUUCCGAGGGGACCGUCCCCUCGGUAAUGGCGAUUGGGACCCA [G6U A78U]	0.107
GGCCGCCAUGGGCCCAGCCUCCUCGCUGGCGCCGGCUGGGCAACAUUCCGAGGGGACCGUCCCCUCGGUAAUGGCGAAUGGGACCCA [G6C U12G]	0
GGCCGCCAUGGCCCCAGCCUCCUCGCUGGCGCCGGCUGGGCAACAUUCCGAGGGGACCGUCCCCUCGGUAAUGGCGAAUGGGACCCA [G6C U12C]	0.123
GGCCGUCAUGGUCCCAGCCUCCUCGCUGGCGCCGGCUGGGCAACAUUCCGAGGGGAGCGUCCCCUCGGUAAUGGCGAAUGGGACCCA [G6U C57G]	0.491
GGCCGUCAUGGUCCCAGCCUCCUCGCUGGCGCCGGCUGGGCAACAUUCCGAGGGGAUCGUCCCCUCGGUAAUGGCGAAUGGGACCCA [G6U C57U]	0.573
GGCCGUCAUGGUCCCAGCCUCCUCGCUGGCGCCGGCUGGGCAACAUUCCGAGGGGACCGUCCCCUCGGUUAUGGCGAAUGGGACCCA [G6U A70U]	0.46
GGCCGUCAUGGUCCCAGCCUCCUCGCUGGCGCCGGCUGGGCAACAUUCCGAGGGGACCGUCCCCUCGGUCAUGGCGAAUGGGACCCA [G6U A70C]	0.135
GGCCGUCAUGGUCCAAGCCUCCUCGCUGGCGCCGGCUGGGCAACAUUCCGAGGGGACCGUCCCCUCGGUAAUGGCGAAUGGGACCCA [G6U C15A]	0
GGCCGUCAUGGUCCUAGCCUCCUCGCUGGCGCCGGCUGGGCAACAUUCCGAGGGGACCGUCCCCUCGGUAAUGGCGAAUGGGACCCA [G6U C15U]	0.646
GGCCGCCAUGGUCCCAGCCUCCUCGCUGGCGCCGGCUGGGCAACAUUCCGAGGGGACCGUCCCCUCGGUAAGGGCGAAUGGGACCCA [G6C U72G]	0.229
GGCCGCCAUGGUCCCAGCCUCCUCGCUGGCGCCGGCUGGGCAACAGUCCGAGGGGACCGUCCCCUCGGUAAUGGCGAAUGGGACCCA [G6C U46G]	0
GGCCGCCAUGGUCCCAGCCUCCUCGCUGGCGCCGGCUGGGCAACAAUCCGAGGGGACCGUCCCCUCGGUAAUGGCGAAUGGGACCCA [G6C U46A]	0
GGCCGUCAUGGUCCCAGCCUCCUCGCUGGCGCCGGCUGGGCAACAUUCCGAGGGGACCGUCCCCUCGGUAAUGGCGAAUGGGCCCCA [G6U A83C]	0.0852
GGCCGUCAUGGUCCCAGCCUCCUCGCUGGCGUCGGCUGGGCAACAUUCCGAGGGGACCGUCCCCUCGGUAAUGGCGAAUGGGACCCA [G6U C32U]	0.787
GGCCGUCAUGGUCCCAGCCUCCUCGCUGGCGACGGCUGGGCAACAUUCCGAGGGGACCGUCCCCUCGGUAAUGGCGAAUGGGACCCA [G6U C32A]	1.08
GGCCGCCAUGGUCCCAGCCUCCUCGCUGGCGCCGGCUGGGCAACAUUCCGAGGGGACCGUCCCCUCGGUAAUGGCGAAUGGUACCCA [G6C G82U]	0.122
GGCCGUCAUGGUCCCAGCCUCCUCGAUGGCGCCGGCUGGGCAACAUUCCGAGGGGACCGUCCCCUCGGUAAUGGCGAAUGGGACCCA [G6U C26A]	0.397
GGCCGCCAUGGUCCCAGCCUCCGCGCUGGCGCCGGCUGGGCAACAUUCCGAGGGGACCGUCCCCUCGGUAAUGGCGAAUGGGACCCA [G6C U23G]	0
GGCCGCCAUGGUCCCAGCCUCCCCGCUGGCGCCGGCUGGGCAACAUUCCGAGGGGACCGUCCCCUCGGUAAUGGCGAAUGGGACCCA [G6C U23C]	0.0639
GGCCGCCAUGGUCCCAGCCUCCACGCUGGCGCCGGCUGGGCAACAUUCCGAGGGGACCGUCCCCUCGGUAAUGGCGAAUGGGACCCA [G6C U23A]	0.0615
